Article PMC4081100, “A DNA-binding-site landscape and regulatory network analysis for NAC transcription factors in Arabidopsis thaliana”

Key:
GST-ANAC092(1-176) = biological target: T1, GST-ANAC092(1-176) (Arabidopsis thaliana, UniProt Q9FKA0 1-176); assay: EMSA; EMSA with 75 pM 32P-labelled DNA, binding buffer as in cited refs 7 and 36; oligos annealed in 20 mM Tris-HCl pH 8.0, 20 mM MgCl2; conditions: protein: recombinant, tags: GST, chain copies: 2, label: 32P
T1 sequence: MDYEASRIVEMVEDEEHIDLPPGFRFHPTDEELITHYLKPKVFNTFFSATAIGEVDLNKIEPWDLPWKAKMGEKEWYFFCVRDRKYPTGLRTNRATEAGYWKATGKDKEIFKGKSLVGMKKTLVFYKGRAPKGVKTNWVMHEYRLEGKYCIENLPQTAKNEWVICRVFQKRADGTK

GST-NTL6(1-168) = GST-NTL6(1-168) (Arabidopsis thaliana, UniProt Q9SCK6 1-168); assay: as above; conditions: protein: recombinant; tags: GST; chain copies: 2; label: 32P; 5' overhangs 4 nt (GATC) on both strands
Chain of GST-NTL6(1-168) (Q9SCK6 1-168): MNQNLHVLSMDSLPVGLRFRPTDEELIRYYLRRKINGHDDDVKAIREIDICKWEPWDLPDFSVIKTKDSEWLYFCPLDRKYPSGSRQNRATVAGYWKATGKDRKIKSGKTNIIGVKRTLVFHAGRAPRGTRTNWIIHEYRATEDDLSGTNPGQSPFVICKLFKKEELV

B1: PalNACBS (dsDNA)
DNA 1: CAGTCTTGCGTGTTGGAACACGCAACAGTC
DNA 2: GACTGTTGCGTGTTCCAACACGCAAGACTG
Q: Does B1 bind (GST-ANAC092(1-176); blunt)?
A: Result: binds

B2: MYB90 WT promoter (dsDNA)
DNA 1: GATCAGGTTCAGCTACGTCACCGATCCAGG
DNA 2: GATCCCTGGATCGGTGACGTAGCTGAACCT
Q: Does B2 bind (GST-ANAC092(1-176); 5' overhangs 4 nt (GATC) on both strands)?
A: Result: binds

Q: Does B2 bind (GST-NTL6(1-168))?
A: Result: no binding

B3: MYB90Synth (Synthetic promoter) (dsDNA)
DNA 1: GATCAGGTTCAGCTAAGTAACCGATCCAGG
DNA 2: GATCCCTGGATCGGTTACTTAGCTGAACCT
Q: Does B3 bind (GST-NTL6(1-168))?
A: Result: binds
